Results as given in the supplement of paper PMC9732359.
± gives the uncertainty stated by the source.

Experiment: protein stability index of a GFP-peptide fusion (yeast GPS) (PSI 1-4); higher = more stable; sorted into four equal gates, so the index is relative within each strain
Summary of the method: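 Tiled 17-residue yeast protein peptides were fused downstream of GFP in a plasmid that also expresses Cherry, and the pooled library was carried in yeast. Mid-log cultures in leucine-free medium were sorted into four equal gates by GFP/Cherry fluorescence ratio, and plasmids from each gate were PCR-amplified and Illumina-sequenced, with reads assigned to strains by barcodes. The protein stability index for each peptide was each gate's read frequency times its gate number, summed.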

| Sequence | protein stability index (doa10∆) | protein stability index (pdr5∆) | protein stability index (san1∆) | protein stability index (ubr1∆) |
| --- | --- | --- | --- | --- |
| AEQEKAKNIISNVLDGN [LRP1] | 2.45 ± 0.051 | 2.7 ± 0.059 | 2.63 ± 0.056 | 2.98 ± 0.05 |
| AEQLKISLSVHTLALEF [RRP46] | 2.1 ± 0.058 | 2.29 ± 0.044 | 2.37 ± 0.063 | 2.25 ± 0.048 |
| AERTMSKKETKLQENRT [SMC2] | 2.84 ± 0.25 | 3.17 ± 0.19 | 3.31 ± 0.15 | 3.04 ± 0.13 |
| AFEAELSNIPLLLITHH [ARP9] | 1.49 ± 0.071 | 1.68 ± 0.072 | 1.64 ± 0.089 | 1.58 ± 0.066 |
| AFGLGAIMSKSSLEELL [ECM29] | 1.83 ± 0.089 | 2.07 ± 0.074 | 1.71 ± 0.12 | 2.06 ± 0.052 |
| AFHNNLKFLYLLDAYSH [MED1] | 1.16 ± 0.07 | 1.25 ± 0.049 | 1.16 ± 0.1 | 1.26 ± 0.042 |
| AFIDERASDLRMTIRTR [RRP43] | 1.81 ± 0.18 | 1.57 ± 0.11 | 1.24 ± 0.25 | 1.39 ± 0.12 |
| AFLSKVPEFFQTANEKH [SRP14] | 3.21 ± 0.12 | 3.21 ± 0.17 | 3.37 ± 0.11 | 3.09 ± 0.26 |
| AFNDSCVNLSLFDARFE [SRB8] | 3.11 ± 0.09 | 3.15 ± 0.059 | 3.39 ± 0.091 | 3.14 ± 0.051 |
| AFNRFMAESLVDLEEVM [SSN8] | 1.57 ± 0.068 | 2.4 ± 0.078 | 2.36 ± 0.17 | 1.62 ± 0.059 |
| AFVKDMQVYLVPIERVA [RPC37] | 1.18 ± 0.13 | 1.39 ± 0.27 | 1.39 ± 0.19 | 1.27 ± 0.21 |
| AGADRLQQGMRGAWGKP [RPL10] | 3.41 ± 0.12 | 3.25 ± 0.13 | 2.95 ± 0.12 | 3.31 ± 0.086 |
| AGEFGLKNKREIYRISF [RPS9B] | 2.56 ± 0.065 | 2.94 ± 0.091 | 3.08 ± 0.14 | 2.77 ± 0.066 |
| AGIPIGLKRSQLDEFKN [SWP82] | 2.56 ± 0.084 | 2.22 ± 0.075 | 2.21 ± 0.098 | 1.38 ± 0.055 |
| AGIRPKFILALNDEGEP [RPN1] |  | 1.9 ± 0.14 | 2.72 ± 0.24 | 1.46 ± 0.073 |
| AGNLITTPEINNFIVER [SRP68] | 2.79 ± 0.067 | 3.07 ± 0.061 | 3.18 ± 0.061 | 2.82 ± 0.049 |
| AGNTTTGGGLFGSKPTG [YGL172W/NUP49] | 2.4 ± 0.084 | 2.18 ± 0.17 | 2.64 ± 0.11 | 2.21 ± 0.097 |
| AGYTDNVIRVWQVMTAN [ASC1] | 1.56 ± 0.14 | 1.35 ± 0.08 | 1.5 ± 0.21 | 1.3 ± 0.075 |
| AHMANPLLRKVVDRESD [PRE4] |  |  | 1.13 ± 0.22 |  |
| AHSLSPKDYIKKLLEVH [CDC53] | 1.7 ± 0.042 | 2.23 ± 0.064 | 2.56 ± 0.056 | 1.77 ± 0.042 |
| AIALAVRLGEEDMIRSV [RPN1] | 3.42 ± 0.14 | 3.4 ± 0.13 | 3.39 ± 0.1 | 3.39 ± 0.14 |
| AIGYPTLPSVGHTLINN [RPP0] | 3.06 ± 0.21 | 2.65 ± 0.13 |  |  |
| AIITDDLDTVLKKDIES [SRP72] | 1.99 ± 0.047 | 2.32 ± 0.047 | 2.43 ± 0.061 | 2.43 ± 0.049 |
| AIKELNYNRIAKICALL [NUT1] | 2.41 ± 0.059 | 2.44 ± 0.065 | 2.37 ± 0.08 | 2.32 ± 0.043 |
| AILQKSLKNVTEKNREI [YIL149C/MLP2] | 3.01 ± 0.051 | 2.79 ± 0.064 | 3.05 ± 0.032 | 2.96 ± 0.036 |
| AILVPMTVNDQPIEKNG [YJR042W/NUP85] | 2.44 ± 0.11 | 1.79 ± 0.073 | 2.84 ± 0.074 | 2.8 ± 0.079 |
| AIMKPYYLWTGKQVFSL [RPO31] | 2.71 ± 0.13 | 2.91 ± 0.11 | 2.83 ± 0.085 | 2.72 ± 0.061 |
